Here are results for 1 substance from US20100249184A1, “INDUCTION AND/OR MAINTENANCE OF TUMOR DORMANCY BY DISRUPTION OF UROKINASE PLASMINOGEN ACTIVATOR RECEPTOR-INTEGRIN INTERACTION” (MOUNT SINAI SCHOOL OF MEDICINE, priority 2007, published 2010).

“Also recorded” adds a separate entry of the source.

This assay addresses T1, purified α3β1-integrin (Homo sapiens, UniProt P05556+P26006).
T1 construct: purchased Chemicon International (Temecula, Calif.)
Put plainly: Solid phase dot-ELISA with α3β1-integrin. It is filed as binding. To be noted: α3β1-integrin 750 ng/ml, increasing concentrations of immobilized suPAR or peptide. The procedure: FIGS. 1A-H show the interaction between α5β1-integrin and immobilized uPAR and uPAR-derived synthetic peptides through solid-phase dot-ELISA. […] Bound integrin was detected with anti-α5 integrin antibody followed by goat anti-rabbit IgG (H+L) HRP conjugated secondary antibody and developed with enhanced chemiluminescence (“ECL”). FIG. 1B is a graph showing that binding of integrin to suPAR is saturable. SuPAR (1.5 μg) was immobilized on nitrocellulose membrane in triplicates, incubated with 0, 0.1, 0.5, 1, 2, and 4 μg/ml of α5β1-integrin and tested for integrin binding as in FIG. 1A. The dots were scanned with NIH Image. Mean and SE are shown. […] Peptides representing regions located in each of the three uPAR-domains were immobilized, incubated with α5β1-integrin, and analyzed as in FIG. 1A. Only peptide 240-248 binds α5β1-integrin. FIG. 1D is a graph showing that peptide 240-248 inhibits integrin binding to suPAR. The α5β1-integrin (750 ng/ml) was pre-incubated for 15 min at room temperature with 100 fold molar excess of 240-248 or 17-24 peptides, or with no peptide (Control) and the mixtures were applied to immobilized suPAR (1.5 μg), 2 dots per mixture, and developed as in FIG. 1A. […] Bound integrins were detected with the appropriate previously titrated antibodies followed by goat anti-rabbit IgG (H+L) HRP conjugated secondary antibody and detection with ECL. […]
(An ELISA detects its analyte on a solid surface through an enzyme-linked reagent.)

T1 sequence (P26006 33-872 limits assumed): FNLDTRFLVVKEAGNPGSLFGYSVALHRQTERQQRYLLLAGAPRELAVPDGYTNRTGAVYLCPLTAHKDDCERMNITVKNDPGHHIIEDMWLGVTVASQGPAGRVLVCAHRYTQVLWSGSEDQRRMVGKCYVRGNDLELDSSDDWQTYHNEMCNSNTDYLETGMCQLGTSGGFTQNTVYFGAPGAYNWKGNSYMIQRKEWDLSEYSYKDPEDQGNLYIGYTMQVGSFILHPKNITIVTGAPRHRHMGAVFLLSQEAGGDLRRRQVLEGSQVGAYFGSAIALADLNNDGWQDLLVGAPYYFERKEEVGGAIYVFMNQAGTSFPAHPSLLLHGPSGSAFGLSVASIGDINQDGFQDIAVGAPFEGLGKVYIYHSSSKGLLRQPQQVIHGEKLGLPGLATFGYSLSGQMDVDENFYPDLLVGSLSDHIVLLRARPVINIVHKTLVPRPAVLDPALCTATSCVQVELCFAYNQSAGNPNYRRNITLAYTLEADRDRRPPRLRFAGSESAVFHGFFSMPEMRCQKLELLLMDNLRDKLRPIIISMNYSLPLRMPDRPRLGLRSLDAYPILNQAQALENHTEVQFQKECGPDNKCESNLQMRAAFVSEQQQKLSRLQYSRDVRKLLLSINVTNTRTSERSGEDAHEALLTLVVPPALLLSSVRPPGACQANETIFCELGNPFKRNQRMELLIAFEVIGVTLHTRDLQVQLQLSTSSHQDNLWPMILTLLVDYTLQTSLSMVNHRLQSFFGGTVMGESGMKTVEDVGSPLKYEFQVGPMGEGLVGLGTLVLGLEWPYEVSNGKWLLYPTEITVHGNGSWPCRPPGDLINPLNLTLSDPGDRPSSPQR
T1 sequence (P26006 873-1051 limits assumed): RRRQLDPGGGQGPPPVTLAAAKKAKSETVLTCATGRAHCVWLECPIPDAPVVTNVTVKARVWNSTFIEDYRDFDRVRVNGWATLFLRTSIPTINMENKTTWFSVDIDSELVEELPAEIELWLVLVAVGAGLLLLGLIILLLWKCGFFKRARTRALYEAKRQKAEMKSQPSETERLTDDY
T1 sequence (P05556 21-798): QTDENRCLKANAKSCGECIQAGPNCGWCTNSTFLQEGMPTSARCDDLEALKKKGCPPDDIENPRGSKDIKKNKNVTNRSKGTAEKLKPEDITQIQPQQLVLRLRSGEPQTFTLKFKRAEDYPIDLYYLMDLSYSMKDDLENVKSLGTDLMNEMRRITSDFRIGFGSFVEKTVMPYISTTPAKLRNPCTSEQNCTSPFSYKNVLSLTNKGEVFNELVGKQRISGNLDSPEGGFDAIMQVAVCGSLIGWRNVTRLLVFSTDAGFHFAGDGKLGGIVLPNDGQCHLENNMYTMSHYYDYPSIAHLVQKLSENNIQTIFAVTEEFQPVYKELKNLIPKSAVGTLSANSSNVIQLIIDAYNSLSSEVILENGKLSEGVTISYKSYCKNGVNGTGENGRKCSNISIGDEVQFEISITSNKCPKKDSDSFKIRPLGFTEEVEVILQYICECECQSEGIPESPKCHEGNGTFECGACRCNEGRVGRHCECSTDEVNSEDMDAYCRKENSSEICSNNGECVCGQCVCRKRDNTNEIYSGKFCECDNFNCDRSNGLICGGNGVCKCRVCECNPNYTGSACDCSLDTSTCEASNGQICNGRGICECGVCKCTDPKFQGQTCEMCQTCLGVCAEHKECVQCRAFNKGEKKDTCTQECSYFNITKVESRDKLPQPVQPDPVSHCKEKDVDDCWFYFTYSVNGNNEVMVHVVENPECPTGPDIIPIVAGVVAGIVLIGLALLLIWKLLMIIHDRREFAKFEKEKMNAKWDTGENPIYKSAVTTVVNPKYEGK

Take “peptide 240-248: synthetic uPAR-derived peptide, domain III residues 240-248: GCATASMCQ (SEQ ID NO:9)”: the “α3β1-integrin binding compared to α5β1-integrin” value is “dots of much lesser intensity; also recorded: bound only weakly”.
